Measurements: patent US20210246166A1 (Bayer, published 2021)
Bridge positions count the residues as written; N and C are the ends. Square brackets hold non-standard residues; d marks the D form. Ends that are not written are not given here. * marks the point of attachment. Piperidin‑4‑ylacetic acid = O=C(CC1CCNCC1)*; Oic = O=C(O)[C@@H]1C[C@@H]2CCCC[C@@H]2N1; Cyclopropylacetic acid = O=C(CC1CC1)*; Gly(cPent) = N[C@H](C(=O)O)C1CCCC1; NMeI = CC[C@H](C)[C@H](NC)C(=O)O; aIle = CC[C@@H](C)[C@H](N)C(=O)O; tBuAla = CC(C)(C)C[C@H](N)C(=O)O; Chg = N[C@H](C(=O)O)C1CCCCC1; NMeC = CN[C@@H](CS)C(=O)O; Sar = CNCC(=O)O

T1: recombinant rat MASP1 active protease (amino acids 302-704, C-terminal His Tag) (rat, UniProt Q8CHN8 302-704)
T1 sequence: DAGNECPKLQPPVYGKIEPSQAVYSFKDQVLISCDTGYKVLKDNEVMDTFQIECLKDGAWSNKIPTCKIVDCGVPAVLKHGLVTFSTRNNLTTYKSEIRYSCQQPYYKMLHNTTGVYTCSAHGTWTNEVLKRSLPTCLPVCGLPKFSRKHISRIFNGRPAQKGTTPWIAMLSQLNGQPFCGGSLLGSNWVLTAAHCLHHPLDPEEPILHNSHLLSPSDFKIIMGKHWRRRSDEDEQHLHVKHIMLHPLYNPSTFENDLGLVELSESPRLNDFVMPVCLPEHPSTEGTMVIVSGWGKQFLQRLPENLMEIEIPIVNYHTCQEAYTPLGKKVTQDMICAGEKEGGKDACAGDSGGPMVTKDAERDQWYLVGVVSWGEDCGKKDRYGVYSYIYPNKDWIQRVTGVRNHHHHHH

B1: Example 261: G-((N-Me)I)-C+SRSLPPIC+IPD-NH2 (peptide)
peptide: G[NMeI]CSRSLPPICIPD-NH2
modifications: disulfide 3-11; N-terminus assumed
SMILES: CC[C@H](C)[C@@H]1NC(=O)[C@@H]2CCCN2C(=O)[C@@H]2CCCN2C(=O)[C@H](CC(C)C)NC(=O)[C@H](CO)NC(=O)[C@H](CCCNC(=N)N)NC(=O)[C@H](CO)NC(=O)[C@@H](NC(=O)[C@H]([C@@H](C)CC)N(C)C(=O)CN)CSSC[C@@H](C(=O)N[C@H](C(=O)N2CCC[C@H]2C(=O)N[C@@H](CC(=O)O)C(N)=O)[C@@H](C)CC)NC1=O
B2: Example 274: (Cyclopropylacetic acid)-IC+SRS-((tBu)A)-PPI-((N-Me)C)+I-NH2 (peptide)
peptide: {Cyclopropylacetic acid}-ICSRS[tBuAla]PPI[NMeC]I-NH2
modifications: disulfide 2-10
SMILES: CC[C@H](C)[C@H](NC(=O)[C@@H]1CSSC[C@H](NC(=O)[C@@H](NC(=O)CC2CC2)[C@@H](C)CC)C(=O)N[C@@H](CO)C(=O)N[C@@H](CCCNC(=N)N)C(=O)N[C@@H](CO)C(=O)N[C@@H](CC(C)(C)C)C(=O)N2CCC[C@H]2C(=O)N2CCC[C@H]2C(=O)N[C@@H]([C@@H](C)CC)C(=O)N1C)C(N)=O
B3: Example 276: G-((N-Me)I)-C+SRSLPPIC+IPd-OH (peptide)
peptide: G[NMeI]CSRSLPPICIP[dD]-OH
modifications: disulfide 3-11; N-terminus assumed
SMILES: CC[C@H](C)[C@@H]1NC(=O)[C@@H]2CCCN2C(=O)[C@@H]2CCCN2C(=O)[C@H](CC(C)C)NC(=O)[C@H](CO)NC(=O)[C@H](CCCNC(=N)N)NC(=O)[C@H](CO)NC(=O)[C@@H](NC(=O)[C@H]([C@@H](C)CC)N(C)C(=O)CN)CSSC[C@@H](C(=O)N[C@H](C(=O)N2CCC[C@H]2C(=O)N[C@H](CC(=O)O)C(=O)O)[C@@H](C)CC)NC1=O
B4: Example 270: AIC+SRSLP-(Oic)-(Chg)-C+IPD-NH2 (peptide)
peptide: AICSRSLP[Oic][Chg]CIPD-NH2
modifications: disulfide 3-11; N-terminus assumed
SMILES: CC[C@H](C)[C@H](NC(=O)[C@H](C)N)C(=O)N[C@H]1CSSC[C@@H](C(=O)N[C@H](C(=O)N2CCC[C@H]2C(=O)N[C@@H](CC(=O)O)C(N)=O)[C@@H](C)CC)NC(=O)[C@H](C2CCCCC2)NC(=O)[C@@H]2C[C@@H]3CCCC[C@@H]3N2C(=O)[C@@H]2CCCN2C(=O)[C@H](CC(C)C)NC(=O)[C@H](CO)NC(=O)[C@H](CCCNC(=N)N)NC(=O)[C@H](CO)NC1=O
B5: Example 260: A-((N-Me)I)-C+SRSLPPIC+IPD-NH2 (peptide)
peptide: A[NMeI]CSRSLPPICIPD-NH2
modifications: disulfide 3-11; N-terminus assumed
SMILES: CC[C@H](C)[C@@H]1NC(=O)[C@@H]2CCCN2C(=O)[C@@H]2CCCN2C(=O)[C@H](CC(C)C)NC(=O)[C@H](CO)NC(=O)[C@H](CCCNC(=N)N)NC(=O)[C@H](CO)NC(=O)[C@@H](NC(=O)[C@H]([C@@H](C)CC)N(C)C(=O)[C@H](C)N)CSSC[C@@H](C(=O)N[C@H](C(=O)N2CCC[C@H]2C(=O)N[C@@H](CC(=O)O)C(N)=O)[C@@H](C)CC)NC1=O
B6: Example 262: AIC+SRSLPP-(Cpg)-C+IPD-NH2 (peptide)
peptide: AICSRSLPP[Gly(cPent)]CIPD-NH2
modifications: disulfide 3-11; N-terminus assumed
SMILES: CC[C@H](C)[C@H](NC(=O)[C@H](C)N)C(=O)N[C@H]1CSSC[C@@H](C(=O)N[C@H](C(=O)N2CCC[C@H]2C(=O)N[C@@H](CC(=O)O)C(N)=O)[C@@H](C)CC)NC(=O)[C@H](C2CCCC2)NC(=O)[C@@H]2CCCN2C(=O)[C@@H]2CCCN2C(=O)[C@H](CC(C)C)NC(=O)[C@H](CO)NC(=O)[C@H](CCCNC(=N)N)NC(=O)[C@H](CO)NC1=O
B7: Example 254: AIC+SRSLPP-(Chg)-C+IPD-NH2 (peptide)
peptide: AICSRSLPP[Chg]CIPD-NH2
modifications: disulfide 3-11; N-terminus assumed
SMILES: CC[C@H](C)[C@H](NC(=O)[C@H](C)N)C(=O)N[C@H]1CSSC[C@@H](C(=O)N[C@H](C(=O)N2CCC[C@H]2C(=O)N[C@@H](CC(=O)O)C(N)=O)[C@@H](C)CC)NC(=O)[C@H](C2CCCCC2)NC(=O)[C@@H]2CCCN2C(=O)[C@@H]2CCCN2C(=O)[C@H](CC(C)C)NC(=O)[C@H](CO)NC(=O)[C@H](CCCNC(=N)N)NC(=O)[C@H](CO)NC1=O
B8: Example 259: (Piperidin-4-ylacetic acid)-IC+SRS-((tBu)A)-PPI-((N-Me)C)+I-NH2 (peptide)
peptide: {Piperidin‑4‑ylacetic acid}-ICSRS[tBuAla]PPI[NMeC]I-NH2
modifications: disulfide 2-10
SMILES: CC[C@H](C)[C@H](NC(=O)[C@@H]1CSSC[C@H](NC(=O)[C@@H](NC(=O)CC2CCNCC2)[C@@H](C)CC)C(=O)N[C@@H](CO)C(=O)N[C@@H](CCCNC(=N)N)C(=O)N[C@@H](CO)C(=O)N[C@@H](CC(C)(C)C)C(=O)N2CCC[C@H]2C(=O)N2CCC[C@H]2C(=O)N[C@@H]([C@@H](C)CC)C(=O)N1C)C(N)=O
B9: Example 275: G-((N-Me)I)-C+SRSLPPIC+IPD-OH (peptide)
peptide: G[NMeI]CSRSLPPICIPD-OH
modifications: disulfide 3-11; N-terminus assumed
SMILES: CC[C@H](C)[C@@H]1NC(=O)[C@@H]2CCCN2C(=O)[C@@H]2CCCN2C(=O)[C@H](CC(C)C)NC(=O)[C@H](CO)NC(=O)[C@H](CCCNC(=N)N)NC(=O)[C@H](CO)NC(=O)[C@@H](NC(=O)[C@H]([C@@H](C)CC)N(C)C(=O)CN)CSSC[C@@H](C(=O)N[C@H](C(=O)N2CCC[C@H]2C(=O)N[C@@H](CC(=O)O)C(=O)O)[C@@H](C)CC)NC1=O
B10: Example 277: ((N-Me)G)-IC+SRSLPPIC+(allo-I)-PD-NH2 (peptide)
peptide: [Sar]ICSRSLPPIC[aIle]PD-NH2
modifications: disulfide 3-11; N-terminus assumed
SMILES: CC[C@@H](C)[C@H](NC(=O)[C@@H]1CSSC[C@H](NC(=O)[C@@H](NC(=O)CNC)[C@@H](C)CC)C(=O)N[C@@H](CO)C(=O)N[C@@H](CCCNC(=N)N)C(=O)N[C@@H](CO)C(=O)N[C@@H](CC(C)C)C(=O)N2CCC[C@H]2C(=O)N2CCC[C@H]2C(=O)N[C@@H]([C@@H](C)CC)C(=O)N1)C(=O)N1CCC[C@H]1C(=O)N[C@@H](CC(=O)O)C(N)=O
B11: Example 268: AIC+SRS-((tBu)A)-P-(Oic)-I-((N-Me)C)+IPD-NH2 (peptide)
peptide: AICSRS[tBuAla]P[Oic]I[NMeC]IPD-NH2
modifications: disulfide 3-11; N-terminus assumed
SMILES: CC[C@H](C)[C@H](NC(=O)[C@H](C)N)C(=O)N[C@H]1CSSC[C@@H](C(=O)N[C@H](C(=O)N2CCC[C@H]2C(=O)N[C@@H](CC(=O)O)C(N)=O)[C@@H](C)CC)N(C)C(=O)[C@H]([C@@H](C)CC)NC(=O)[C@@H]2C[C@@H]3CCCC[C@@H]3N2C(=O)[C@@H]2CCCN2C(=O)[C@H](CC(C)(C)C)NC(=O)[C@H](CO)NC(=O)[C@H](CCCNC(=N)N)NC(=O)[C@H](CO)NC1=O

The binders below were run against T1, recombinant rat MASP1 active protease … (assay: cell-based or functional assay).
For B1, the “rat MASP1 IC50” value was 300 nM. With B2 the “rat MASP1 IC50” value was 89 nM. In the case of B3, the “rat MASP1 IC50” value is reported as 200 nM. For B4, the “rat MASP1 IC50” value was 170 nM. In the case of B5, the “rat MASP1 IC50” value is reported as 160 nM. In the case of B6, the “rat MASP1 IC50” value is reported as 490 nM. In the case of B7, the “rat MASP1 IC50” value is reported as 320 nM. For B8, the “rat MASP1 IC50” value was 27 nM. For B9, the “rat MASP1 IC50” value was 150 nM. In the case of B10, the “rat MASP1 IC50” value is reported as 190 nM. B11 was tested, and the “rat MASP1 IC50” value was 100 nM.
